The target of this series is HER2 (GST-tagged, human) (human, UniProt P04626 676-1255). Briefly: electrochemical aptasensor (cyclic voltammetry); Ag NR@PEI-Ag nanohybrid label cast after HER2; LOD 10 pg (not a Kd); Aptamer 0.25 uM loaded on Au electrode; HER2 cast and dried under infrared lamp, PBS wash; CV in 0.1 M PBS pH 7, 100 mV/s; temperature not stated. As to conditions: protein: commercial; tags: GST.

B1: HER2 aptamer (ssDNA)
DNA: GGGCCGTCGAACACGAGCATGGTGCGTGGACCTAGGATGACCTGAGTACTGTCC
modifications: 5'-thiol (SH)
As for B1, the binding result is reported as “binds”.

The record behind these values is paper PMC10709618, “Ag nanorod@PEI-Ag nanohybrid as an excellent signal label for sensitive and rapid detection of serum HER2”.
